Reference: the domain aggregation screens of Martell et al. (2025)

Assay: soluble fraction after stress (log2 fold change); higher = more stays soluble; pooled small domains, quantitative proteomics
Details: stress: 75 degC
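Also: 20 min heating vs room temperature control held 20 min.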

Row | Sequence | soluble fraction (log2)
1 | HMAFAVWVKLVAIGPNYAQLEIEQGTQRNVRTLRPGDDAPEGVRLLSLTPTHAEVQANGIARKLALGQGMA | -3.22
2 | HMAFDESLVRSIQELLSELGYSPGKIDGLLGAKTVAAIKAFELEINKDQLTGEPSEELLIALQLAIRSSKM | -1.81
3 | HMAFDGIVLKNITNALKELINGKINKIQQSSKDNLTLSIYNQKSYNLYIDISANNYRVNLTTHSE | 0.126
4 | HMAFDYETYQLTSREFSIIELVADGRSNREIAEALYLGEGTVRNYLSSILEKLELRDRTQLAVFFYQHL | -2.3
5 | HMAFIEIMTEGDADGRGFQYPIPTYSITRDFDWSETENNKLLFEMTAKYGTPYFSNYINSDMEPSDV | -1.13
6 | HMAGAITEREVEVLELLSRGLGNKEIAKELFVSEATVKSHLSHIYTKLAVDTRAGAVAAAIERRIIRAWR | -2.99
7 | HMAGASQAVKAQLRLREMILAGELPGGARIAELTLVEKLGVSRTPIRAALMRLEQEGLLHRLPGGGYAVRT | -2.27
8 | HMAGDDEIEKIAQDILAAWPDKVAAYQAGNKGLMGLFMGELMKKSQGKANPKVASGIIQKLLD | 0.0201
9 | HMAGEDPANLELMRLMDEEYMEHPTKGVLGMVDFLRALGILTGPKRVRRLLRKMGIMAIYPK | 0.159
10 | HMAGGVFELTGKVTADAKAGDLVYVKAATGAGTKPVVTTVKTGADVIIGWLKEPVSSASVDQKMQVVLA | 0.267
11 | HMAGITLHAEEGRVRIRSQSEGLVKVLDAMGREQASWPLRSKGWWFFLTEGWAPGTYFVKTESGETQRFLV | 0.274
12 | HMAGNNTATKEIAELLIAKGADVNAMNLSPPGREIGGMTPLDMAILGNRNEIADLLRKHGGRTQKELKAE | 0.262
13 | HMAGPGAEVVDRLIAVLTGERPATAADQVLLSILKGLGIGGVVLPSERTGLGWSGLYQRVKEITDMN | -1.61
14 | HMAGPRRRLLDAAIDRAAERGLGDLSLRALAEELGTSHRMLSHHFGSKDGLWLAIVEEVERRQ | -1.08
15 | HMAGSTAASKHALALLNTARHSIRDGNLTSAAAEIKQALATSQEQIVITEARSLMTAMEARATTRRATVLQ | -0.41
16 | HMAGTAMRATTAVNVRSGAGTNYSRIGLLQAGEQIQALSSKNGWTQVSYKGRTGYVASAYLASL | -2.57
17 | HMAGTGKVNTGVANVRSGPGTNYEISGKIYADTEVSILETSNGWYKIKFGNLTGWMSGTVLDIK | -0.902
18 | HMAGTPAVVKWFNPTKGFGFVTPREAGSDALLHASVLAKQGKRWLQEGTVVEVVLEEGPKGLVVSEVLTIE | -0.457
19 | HMAGWMPGGTNPAEPGRFAVLMDVDDSDAYKHMFLRWNGHAWEFERTRVLVKMEPSWWMRLPDDPEKP | -3.16
20 | HMAHKRVDGTIVTPLTADTIVLRTGTHGEQPFEIRDTTRHKLESLQKGDMVILLIDTDNKVIDVAIPP | 0.373
21 | HMAHYYVRNGYYYYQRRIPLDLRKFYSGANIKASLKTKDPAIAALFVAKFDRQYDAEFAQRRLNPD | -0.533
22 | HMAIELIDLIKNPETAPFSKLKYLKWMPEAEVTGFFNNLFQLNVTARETGDWSTVDKFLEDEGDRIAAQVA | -0.0284
23 | HMAIEMSTITKRVTSTGEIRYRALLQIRREDVNYTESRTFSKKSLAEAWLKKREVELEANPELLHQ | -3.44

Row | Sequence | soluble fraction (log2)
24 | HMAIGERIRFLRTLRRMTQKELGLAAGFPEKNASIRMAQYENGTRTPKAELTAVLAEILKVSPQALTV | -1.52
25 | HMAIKNKNEQLEAIIKFADLRGEFKTADIEELLSIKSSRARLLISELVKIGKLESIGSNRNRRYHIK | -0.974
26 | HMAIKTGAVTGHGVKVRKGPSTNEKAIHDVLYGSRLQILEEKNGFLKAKFEDGTTGWISKQFVTTTDKNLL | -0.0233
27 | HMAIKWTPEIEDEVSNKLKEKWSPEQISAWLKKNKSIMISHQRIYQFIVEDKMSGGNLYRNLRQ | -2.45
28 | HMAIPTTDSDKATDAQIKQIKLLGDIHPNLKLDAWLERNHVTWETLTREQAGNMMKAIKNKYGD | -0.105
29 | HMAISEAERARLQTKIKERNKMARWINTNLNPTSKIRNINPAETVRKLMTQDDADSLERSLDAFMEA | -0.0807
30 | HMAIVNVEVPSLVGKTEQEARNLLTEAGLKVNVVNDEDESKNDGVVLRQSKDAGTEVQEGTTITITVNKVS | 0.0932
31 | HMAKDDFMSFVKAVWPEFIEGAHHRVIAQKFNDLATGKITRLIVNMPPRHTKSEFASYLLPAW | 0.214
32 | HMAKDEYGLTSNQRAFADEYIRNKGNATQAYLFAYPHIKKENTAAVNASRLLRNAKVSKYIADRTKEIL | -0.103
33 | HMAKIDSRKALIDQLTTTFTRAQLEELITKNELSTDARFFLSQWNAKGWIRKTAKNVYEKLR | -0.969
34 | HMAKLTPDQQELRAIRIELQMSQPDFADAININVPRLSSYEYGRTAGVPTSIMEAARELKRSMSR | -0.848
35 | HMAKRDEIEAELPRFVATITQELAASRDVLSMIEHYKQNSGPVFSAELDVLTADMRSGSYEAALTRFEARF | 0.188
36 | HMAKRKYKSFKDVAEFAQKLGIKSSTEWWAYVRGHEIPSDIPKDPSTYYKKEWTTWGDFLGTGYVSSA | -0.513
37 | HMAKRTVPSVAEAIDNFRRQHRRMPSYAEMLPLLGVRSKSVVHFWINKLLENGLLEKDDKGYLTPGS | -0.134
38 | HMAKSPYDVLGLKEDAPFDEVKKRYRELVKKYHPDILMGRGESEEMIEKSTRKLQEINEAYETIKQRA | 0.119
39 | HMAKVDIPHEMVDQRIDEIVEEIKMNLESQNMSLDDYLKRMNQTEAQLRANYEATAAEQVRQGLV | 0.858
40 | HMALDSQEVGYNIEARGARPVVAQLGKAGQFSAVENSIRLGDDNWIALAPKLAGGGNAGFTAGIKSALS | -0.0514
41 | HMALIGSNLRHLRNERKLSQQELADLIRVGRTTIANIEANLANPGHKTLLEIVKVFDITIDELLHTDLTK | -1.79
42 | HMALKPKITIEELIRILNESKDLSDSETAKILNKDYTTAKYGKEFTSINVQGARYALDIATNTS | -0.145
43 | HMALLSNEDIMFNLEFNRDLAVASNDGVSRDEFLRNKYGISEEEYNMLRARYGDGLNAARIKEYVGQRD | -0.182
44 | HMALLSNTVDELHAGMRLDSYLFESGLYPSRSFAVKQIEAGKVFLNGDAVTKKTLVSNGDFIVYELEE | -0.854
45 | HMALMLGGLIVYLNTTAPRDDIDLIELSKDTKAMAAFGNKLASPDYNGKQFALDWHELSRDEIMSKYFS | -2.03
46 | HMALPDWLDPEAWAAWKRHRKAIRKPLTEDAVALSIRELAKLRDEGYGPTSVIENAILKGWQGLYPPK | -0.364

Row | Sequence | soluble fraction (log2)
47 | HMALPGESVYVSILQSGSNRDQGVGYLDDGTMVVVDGAIKDIGKSIEVVINKSHQTVAGKMLFAKKVA | -0.667
48 | HMALPQPDDDRQDTKKRILDMAEDLLLTRGFNAFSYQHISSELGMKNAAIHYHYPKKNDLGVAVIQRYRRR | 0.128
49 | HMALQDKYAELLTAANTMGVTNLAVAEKDGTLHVSGTAKSTADYDSLWALYDKIDPNMASGDLMMNI | 0.36
50 | HMALQDKYKELTDAATAAGVTDLQVREQDNVLYIDGTAPSGAVKDQLWAIYDKIDPNFVSGDLVLNVNVD | 0.0863
51 | HMALTLDEARTQGRVGETFYGYLVALKTDAETEKLVNDINAERKASYQQLAKQNNVSVDDIAKLAGQKLV | 0.00592
52 | HMALWFDEWKKYQDTIASADLLPDKAERDALIAQAEDRFNYWMDIYPRSASLNHSFDDLYEEHRRKIE | -1.01
53 | HMAMDYEGFKKSVYALTSIDLNAYKERQMKRRIDTLIAKNKYNGYEDYTAAIKKDKALFEEFVNYLTIN | -2.05
54 | HMAMMTKQRLIQLIHIARNDLQMDEDTYRQMLQGLTGKASTKGMDTPQLNRVLESMKKKGFRIK | -1.69
55 | HMAMNLQETVLMQLRDLILRGTFEPGQRLSEQPLAERLKASRTPVRSALVTLEQEGLIEASETGKYLVRQ | -0.821
56 | HMAMTNEEREALISEIKQTVNNSIDLKKDISDTEIKEAITQAVFERSEKSYLSIAEKQDIITAVFNSMR | 0.378
57 | HMANADVVLVDLDKEYTVDAAKFHSVVKHSPFNGFAVKGAPVLTIVRGTVVAENGEVVGQPGHSKMVRP | 0.108
58 | HMANEGWDIYKLDIRNHKQPNGEYYSEKEIQSTINNTFGKGSFNVDWKKYEKDKEYREKTNYYYFQAKYFV | -0.903
59 | HMANHIAAIHVLKSKLQMSDSDYRVLITGLTQKASTKDMSDIERQRVRDHMQGLAERMGVVK | -0.66
60 | HMANIAVTIPTGSSGDRIADILLQAGLIKDKQDFNQAVIAAGAEGKLRAGYFVIPSNATPAEIISILT | -0.521
61 | HMANILKHKNKDGVITSYTIRVYHGYDEAGKRLRPYTMNYKPAPNMTARQIEKELNRQAVQFEEQIKNGYA | -0.892
62 | HMANKLTSTNLAKQHKMGLSEMYAELMNSGYLIEKDGKYELTPLGISIGGESKPNRYKKGEFYFLWPSDIS | -0.618
63 | HMANLLNLREIPVANIRPELTMFLIPGENITQAFQTIRDQVVFTNKRLIVANVQGLTGKKVSYTSYPY | -0.38
64 | HMANPFQELTERELDVLRQVAAGKNNREIAEALFIGEKTVKTHISNILSKLHLADRTQAAVYAWQQGMM | -0.223
65 | HMANTVVMPNLLGKTMTEAKIELKELGIDITLKGSESSSKYSAGQIMEQNIAEGTKVEVGSSVEVTIAGS | -0.579
66 | HMAPAPDEAFAEFVRSSAPSLTRTAWLLTGDRGHAQDLVQNAYAKTLQAWGRLDAEGALAYTRRAVIT | 0.174
67 | HMAPDGIEDKEGWLKVLPMITNLSIQMQNLQARGMDYEHIRNLLHETLLRYDDRIDSNLFIPNV | -0.059
68 | HMAPDNDELEKAKKIVNAFIEAKAKGLGVVSLGTKMIDAPVVKRAQKIIDQTIVMGKLSLNWQDEFFN | -0.208
69 | HMAPEVTVHDGSIVVRGHVGGVTVYDESGRQIASVQSRGAVAIPVPAGHTYLYIVKPEGKPAIKVRAAH | -0.265
